From the domain aggregation screens of Martell et al. (2025)

Assay: soluble fraction after stress (log2 fold change); higher = more stays soluble; pooled small domains, quantitative proteomics
Conditions: stress: 50 degC
How it was run: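 Pooled custom libraries of small protein domains were measured in a high-throughput format, with quantitative proteomics as the read-out. Each library was stressed at 50°C. Aggregation propensity is given as the base-two logarithm of the fold change in how much of each protein stays soluble after the stress. Higher values mean a larger share of the protein remains in solution.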

Sequence	soluble fraction (log2)
HMSSDLDQYMKNIRKQHNLSKREFAKQLGISAATIVRIENGITVSPSKNLISKLAYYLQKSEVEILQDIQS	-1.08
HMQSNDAGELEAVVKGIIDANPKVVADYLAGNQKVVSFFVGQAMKATKGKANPKMVSEILGKLL	0.00348
HMSVNAPMPGKIVNVLVSEGQKVNSGDVLLILEAMKMQNEIAATQAGTVKAINVAAGQSVKVGDALVN	0.108
HMKEIKRLVELSPGRYFIEGATNIRVFGINGSLLLDTKGETVDLSDLAKGVYLLKTDGVTYKVL	-0.543
HMDTNVKLLSPKQADFFASKLANNQNFSSKFAKVGEDMQPFIERISSELQQDISQVIVYMPYLLESGFKQ	0.0782
HMDGIRLYPGLMIEHKNFGRGQVVSVNRERGTFTAFFGKNGTRTLTIQILKTDTVRPLASQKAGK	0.212
HMFQLSNEAKQQVLGELKRYESKQSAVLPALYIGQKDNKGHITPEVIRELSKVMDIPESQINEVFTFYTM	-0.119
HMKDLTAIKGVGEFFAKKLSQAGYQSITNLTDVNAKRLQADTGIPLPIAARIIKEAQSLIAET	0.206
HMDILEVLIKKDLAMELLEQLTERQRTVVYLRYFYQLNQKEIADYLGISQQRVSEILSRAKAVLTAYTKK	-1.43
HMGKIILLFSDDDGVFDTALYRVRNYDGHRFAQSLGNAEMKWRHSEDEYFDFVLTSLREDGYDIEEIE	-1.22
HMLHMKAALGELMSIPGMRSELAGTLFDRGYTSLAQLRAATLDDLERVNGLERADARRIHDFLRKS	-0.0753
HMGRTVKGVNFVGLRDAGDPVDLAEIYSKEGADELVFLDITATHEKRKTLLDLVTRVAERINIPFTVGGGI	-0.015
HMTKKFQIQTLDKLNVRKVADWNASAVTTVKKGQILDVVAEVSPKNGSTKMYKLESGLYITASEKYVKKQG	0.0509
HMKYVDYYATLGVARDADLATITKAYRKLARQTHPDLNQGADNEARFKAAAEAYATLKHPEKRAAYDELGQ	-0.00408
HMEIHQVEFGGKVISFVLERKPVKNVNLHIKPDMTVMVSANEKVPLDFILGFVKQKAAWILKNIQFFEDV	-1.25
HMKELLDRIFLHETMRRVSQDATITFSKKVYEVPQKFIGRQVTVQYDPEDLSRVYVKDLNFPEPVMVYPVQ	-0.843
HMTQSQSLQSQFEQLEKAYQDNLHLLSPKQKLIIQEAGKIIQQLPQQAQIQAKVNLYQSLSAEISKESQQ	0.118
HMGERVDGVVKFFNGQKGFGFIQREDGGPDAFVHISAVERAGMAGLDEGQRVSFELELDRRGKQAAINLTP	0.00122
HMVNDQSIYASEGYVHIRSGKPVSLRIYTILGALYRHEERLVGDHVIALPRGLYIVVLNHTAKKIMV	-1.01
HMVDIEQAEFLSRQFDLLLARLDDPTIEWQDIADIRSEYTGENEHRDTIRKGSKLFYEYLQAGWIKN	-0.748
HMEAKQMDAWIVSEAKRQGGKIEPAAAYELSRHTATDTSIASQEIAKLLMYVDFKRPVTREDVVELVSA	0.176
HMKTGHLPVTVIIDGRIISDNLYKTGLSNNWLADQLRKNSIKSSEDVFFAYLNPERKFIYQLRSNS	-1.01
HMLDNHPQSKKIRALWLEMAAAGVVRDSSEQALALWVKRETGISALRWLSNEQASSVIEKLKKWQRRAAG	-0.687
HMNRIFQERVVPAELDTLRADKVAASLFSDFSRNELAHWIKMGDLSINGGVKKAKDKLFEGDVLILDVEIV	-0.798
HMTKTKFLSKDMILSAMSRTKSNRAAARYLSVSFVHYKKYAREYKDETSGVSLWEKHKNQSGTGIPK	-1.92
HMANSANARKSLVSKLIAGGKIASQSDLVKALKKQGIVVTQGTASRDLEDIGAIRVRNSEGEIVYALT	0.081
HMKVDRLVSMILILLEQQRVGAQELADRFEVSVRTIYRDMEAINQAGIPVRSTSGVGGGFEIM	-0.34
HMRSPIWKSITATLTAEIAGGQYRAGDKLPTEAELSQRFGVNRHTLRRALAEMAGAGLVVARRGAGVFVQG	-1.94
HMPVFSAEQVAKAEADVQKVANKVQEAGADVEKLTTIHNWLLAREKYMPPDLFSTANQIIATAFQKAG	0.112
HMIQNTGMMESGDSIRGMALDAGFPLLMVVGYRGWTRKGNTPDSAAVYTEPFLNAFRLNYYLVEHDE	0.309
